Source: the DeepSol protein solubility set

test: soluble on expression in E. coli; label from the status in PepcDB or PDB records

Row | Sequence | soluble on expression in E. coli
1 | MQVIAFIAPLIDKGMDPLTGVPIRQEVPRLMERTFQENQAETYVLFLINLDRFKLVNDSLGEGYGDQVLQTLVRRLLWQLPNQQWIARVSGDEFIACAAIKGELPKKETLATYISSIIQQPFQVDEVQFTMTASIGAAVYPMDGKSVEMIWNSLERALRHAKARGGNCVSWFCQELKDEWIHPFRLENDLRRAVENQELEHHHHHH | not soluble
2 | MQVLWSNPIELGMTGGDVRMVKGPSDALRCLADHWPYRGPYYVAARSACRAAIDGRRTCEEARRLFLSAAEEARLKAH | not soluble
3 | MQVSGSSGNRIWDANLSQNLTYTWTPQTYSGFYYDLDTGEGSENMTIQLTEGSRSVQRNGLQYETRPIETNFEYGNWGSYQVIGFMAERYFAGYTENSNFVNDDISVISDGQLSKILIDSDDRKSLYTGSSLILEEGYSLNIVEVDVNGNTVWVQLEKDGDVIDNGFLSSNSNYVYETDLGDADDVPLIAVHLAQIFRGTETNAIFVEGIFQISDEYVQIENGDRFGKMEISSTSSSGIIMRNRDSFTLGRGDTVDIMGKLSFVVADSSELRFAPIVEISEPGTYELRLEHHHHHH | not soluble
4 | MQYINYRENRRRGTADFPLEYYHVTASHPQYVMSFHWHVEFELIRILSGSLTVTIDEIEFLAEAGDSIFIPAGSIHSGIPDDCVYECLVFDMNMLMNKTDSCCRFLRQITDHEVSVQTHYPKICNTIHRTLWTLFDAAASKKEGYQLVVFGAMYQFFGTLFSEGFCKNAPDEEHRSHKRILQLKQALEFMESSYNLPLTLEEISGSVNMSPKYFCRFFHEMTHRTPIDYLNYYRIERACYQLITTNLSITEIAYASGFNDLSYFIKTFKKYKGTTPKKYLKI | not soluble
5 | MRAHEIEYKLYGDDMQFVEIELDPEESVIAEAGAMMMMEDYIEMETIFGDGSGPSGGLFGKLMGAGKRLVTGESMFMTVFTNTGHGKRHVSFAAPYPGKIIPVDLTEYQGKVVCQKDAFLCAAKGVSLGIEFTKKIGTGFFGGEGFIMQKLEGDGLAFMHAGGTVYKRELKPGEKLRIDTGCLVAMTKDINYDVEFVGKVKTALFGGEGLFFATLEGPGTVWIQSLTLSRLAARLTSPAAQSTGEGSVLGGLGRLLDGKE | not soluble
6 | MRCVVYSIAKSSPLELVKIYQKQCRQFDCELELVDLFPKNTANAQKVSKKLAQKSYSLAFEPYLNPKAKNIALHPKAQRGDSFAFSKMLENHLNINFFIAGAYGFEENFLKDCQAWSLSEMTFSHEVAKIVLCEQIYRALSIIFKHPYHKLEHHHHHH | not soluble
7 | MRDEKRKAIPAIGFYPQEEISTGTTLIAMEYNGGVVVGTDSRTSAGSFITSRATNKITPITDNMVVCRSGSAADTQAIADIAKYHIDVYTMTENKPVTIYRSSQIFRQFLYNYREQLSASVLVAGWDEELGGQVYAIPIGGFVSRQRSTASGSGSTFVQGFLDSQWRPNLTLEECKAIVKQAVGLATFRDGSSGGVVRLAVINKAGSQFELFRPDKPGFPFVQTPTPHLSFPPHIEQVL | not soluble
8 | MRDIMSSPPITTLPMTSVKEAAKIMLENRVGSLIVVNERNTLLGILTKTDIIREVVAKGLDPESVRVGDIMTRNPYYVYTDDSVERAASLMGEHNIGHLPVLDPETEKPVGIVTKTDIVKLAPNYINVIYSLKQEIDRRERLKRIRK | soluble
9 | MREDHSPRRNNTIENTLTELLPNRLYFGCFPNPDAIDKSDKSVKKTCFININNKFHYEPFYEDFGPWNLSVLYRLCVQVGKLLEVEEKRSRRVVLFCQDDGTGQYDKIRVNTAYVLGAYLIIYQGFSADDAYLKVSSGETVKFVGFRDASMGSPQYLLHLHDVLRGIEKALKFGWLDFSDFDYEEYEFYERVENGDFNWIIPGKILSFCGPHNESREENGYPYHAPDVYFDYFRENKVSTIVRLNAKNYDASKFTKAGFDHVDLFFIDGSTPSDEIMLKFIKVVDNTKGGVAVHCKAGLGRTGTLIACWMMKEYGLTAGECMGWLRVCRPGSVIGPQQPYLIEKQKFCWSLSQSNGVHLTQNKEEKRNVRRLVNQVDDINLGEERISPKSRENTRPNILRRRVQVQNGRSTAPVTIAPAGTSESRRSTKPSRVVDETALDDQGRSQGDRLLQLKAKHQHESETTSPNSSSSRRFVKSSTPQMTVPSQAYLNRNREPIIVTPSKNGTSSGTSSRQLKTTPNGNVAYRTRNSSGNTTSTLTRTPASAVFPSMASRRSETTRYLSPTTPIKPMSPSYTDGTSPRYKARLRSENPIGSTTSTPFSLQPQFGLVRVPPDSPHSIMAHRPPPTTSSRAPLSPHNYSTTQGYSTSSRGLYGDKKPLARGSVSTSTLPSMYMTRKMSENGAVEVEITTSYVEDRKAAEQIDPSSTPPEPKRRFVLVSRKIVSKEVPSAGPTCSNDPRLNYASTRKLPIKISHRLCQICRTIKPIADISMMTDENEKLFILLAAIFQRKLFVEECTRIYKQPAVYTCSSHYSEASTAILNMFGVGGALRIFRARPRKVSQVEKFASHLMGKQFEEDKLIHSAYMFVLNHPEAGAVTGPIIKEEDIPFEETVECSSTTAVNGILPKCFRQPRKQKLEEDSCSSSILRIIKKTTPSLPNRSYTMINQNMEHPLQCCYCLEVYEKRYMTQVPKTEQRIARWVAILGEQFRIRLRMKPANYMCRKHFPQADFSSRGRLLKTAVPNVVSQEKVLAFKLEGNTFVEVKEDNTNIKMEKGTDSEIDIEN | not soluble
10 | MREKFYEKYYYAKSDIEGQDGGVVTAFLKYLLENGKIDGAIVVGDECWKPVSLVVQNAEDLLKTAKSKYAISTLDALRKAGEMGLEKVALEHHHHHH | not soluble
11 | MRELKVVGLDADGKNIICQGAIPSEQFKLPVDDRLRAALRDDSVQPEQAQLDIEVTNVLSPKEIQARIRAGASVEQVAAASGSDIARIRRFAHPVLLERSRAAELATAAHPVLADGPAVLTMQETVAAALVARGLNPDSLTWDAWRNEDSRWTVQLAWKAGRSDNLAHFRFTPGAHGGTATAIDDTAHELINPTFNRPLRPLAPVAHLDFDEPEPAQPTLTVPSAQPVSNRRGKPAIPAWEDVLLGVRSGGRR | soluble
12 | MRERLKGVIKKGVKVFFTDESGIHHDPSKVRRLGLYNVPVDYPSRKLNVLASIPLFDGVPCFMSTYSNVNFKIFAEFLRLFRNSGPIVLILDSAKFHKNAYVFSVASQLGITLLFLPPYSPDLNPIEFGGTWFVG | soluble
13 | MREWINQSKIDLLAKEIGEENVPILVNIFLGELNDYQSKLVSDTVADKLGYLKEISHALKSSAASFGADRLCAKAVELDSRAKSGEMMDISLEVEHMLELLKQTHQCYSDLVH | not soluble
14 | MRFFLSPPHMGGNELKYIEEVFKSNYIAPLGEFVNRFEQSVKDYSKSENALALNSATAALHLALRVAGVKQDDIVLASSFTFIASVAPICYLKAKPVFIDCDETYNIDVDLLKLAIKECEKKPKALILTHLYGNAAKMDEIVEICKENDIVLIEDAAEALGSFYKNKALGTFGEFGVYSYNGNKIITTSGGGMLIGKNKEKIEKARFYSTQARENCLHYEHLDYGYNYRLSNVLGAIGVAQMEVLEQRVLKKREIYEWYKEFLGEYFSFLDELENSRSNRWLSTALINFDKNELNACQKDINISQKNITLHPKISKLIEDLKNKQIETRPLWKAMHTQEVFKGAKAYLNGNSELFFQKGICLPSGTAMSKDDVYEISKLILKSIKAGSHHHHHH | soluble
15 | MRFKVGIEFDESLELPFNYNKILQGFIYRNIMDKDLARFIHDRGFSYEKRKYKMFTFSRLQGKFSIDSKKKKIIYQSPVELVVSSCYEDFFIDLSLSLLRRDVEIAGHKAYVSKMDIIMEEPKSIQKIRMLSPVTAYSTLDDKRTVYFSPYNHDFKRIIKENLIKKYKAFYKDDSKDNVDFDIELVSDKYAKVISSYDGFIIEGWMGDFVLKGDQEVIKLAYDAGIGGKNSQGFGCFKLI | soluble
16 | MRGLDYRWIEALDSVVSKGSFERAAEQLFISQSAVSQRIKQLEKYLAQPVLIREQPPRPTLVGKKLLGLYRRVCLIEQELVPELTNQEHVRPVSMSIATNADSLATWLLPALDKVMKSRQVELNLVIYGESRTLDKLKNGEVVGAISLEPQPITGCSAEYLGQMEYLCVASPEFYQKYFAKGVTPRSLIKAPAVSYDQYDELHNKFLWDYFAVPRDKVINHTVGSSEAFVRLALSGAAYCLIPRLQIISELESGALINMTPDFMLSYPIFWHHWQLETGVLLEISEAITAYAKSVLPQ | not soluble
17 | MRGSHHHHHHGRSLNPLSTPQFDSTDETPASYNLAVRRAAPAVVNVYNRGLNTNSHNQLEIRTLGSGVIMDQRGYIITNKHVINDADQIIVALQDGRVFEALLVGSDSLTDLAVLKINATGGLPTIPINARRVPHIGDVVLAIGNPYNLGQTITQGIISATGRIGLNPTGRQNFLQTDASINPGNSGGALVNSLGELMGINTLSFDKSNDGETPEGIGFAIPFQLATKIMDKLIRDGRVIRGYIGIGGREIAPLHAQGGGIDQLQGIVVNEVSPDGPAANAGIQVNDLIISVDNKPAISALETMAQVAEIRPGSVIPVVVMRDDKQLTLQVTIQEYPATN | soluble
18 | MRGSHHHHHHGSDLGKKLLEAARAGQDDEVRILMANGADVNANDWFGITPLHLVVNNGHLEIIEVLLKYAADVNASDKSGWTPLHLAAYRGHLEIVEVLLKYGADVNAMDYQGYTPLHLAAEDGHLEIVEVLLKYGADVNAQDKFGKTAFDISIDNGNEDLAEILQKLN | soluble
19 | MRGSHHHHHHGSIEGRSAVTCDDYYYGFGCNKFCRPRDDFFGHYACDQNGNKTCMEGWMGPECNRAICRQGCSPKHGSCKLPGDCRCQYGWQGLYCDKCIPHPGCVHGICNEPWQCLCETNWGGQLCDKDLNYCGTHQPCLNGGTCSNTGPDKYQCSCPEGYSGPNCEI | soluble
20 | MRGSHHHHHHGSMQILLANPRGFCAGVDRAISIVENALAIYGAPIYVRHEVVHNRYVVDSLRERGAIFIEQISEVPDGAILIFSAHGVSQAVRNEAKSRDLTVFDATCPLVTKVHMEVARASRRGEESILIGHAGHPEVEGTMGQYSNPEGGMYLVESPDDVWKLTVKNEEKLSFMTQTTLSVDDTSDVIDALRKRFPKIVGPRKDDICYATTNRQEAVRALAEQAEVVLVVGSKNSSNSNRLAELAQRMGKRAFLIDDAKDIQEEWVKEVKCVGVTAGASAPDILVQNVVARLQQLGGGEAIPLEGREENIVFEVPKELRVDIREVD | soluble
21 | MRGSHHHHHHTDPALRASIKNLPADYLLAAQQGDIDKVKTCLALGVDINTCDRQGKTAITLASLYQQYACVQALIDAGADINKQDHTCLNPFLISCLNDDLTLLRIILPAKPDLNCVTRFGGVGLTPACEKGHLSIVKELLAHTEINVNQTNHVGWTPLLEAIVLNDGGIKQQAIVQLLLEHGASPHLTDKYGKTPLELARERGFEEIAQLLIAAGAGLCGR | soluble
22 | MRGSHHHHHHTDPHASSVPLEWPLSSQSGSYELRIEVQPKPHHRAHYETEGSRGAVKAPTGGHPVVQLHGYMENKPLGLQIFIGTADERILKPHAFYQVHRITGKTVTTTSYEKIVGNTKVLEIPLEPKNNMRATIDCAGILKLRNADIELRKGETDIGRKNTRVRLVFRVHIPESSGRIVSLQTASNPIECSQRSAHELPMVERQDTDSCLVYGGQQMILTGQNFTSESKVVFTEKTTDGQQIWEMEATVDKDKSQPNMLFVEIPEYRNKHIRTPVKVNFYVINGKRKRSQPQHFTYHPV | soluble
23 | MRHFDIAITGAGLAGQIAAIALARAGRHVALIAPSSEKKDQRTTALMDQSIRFMDRLGLWSRIAPSAARLSTMQIIDGTDRLLRAPTVQFRSSEIGLDAFGWNIPNEALLGVLSEAVEQEHNITRLDTTAETIDIGNDRISVTIADGEVLSADFLIGADGRKSMVREAAGIGVKSWSYPQTAVVLNFSHSRPHGNVSTEFHTPTGPFTQVPLPDDRSSLVWVVTPQQAEELTALPLETLSLKVEERMQSMLGAVTVENSVQAWPLSSMTAHRFGKGRVALIGEAAHGFPPIGAQGLNLSLRDIIALTELLGAVSDRPIAADAGSSFDRKRRADVYSRTLSVDLLNRSLLSDFLPVQMARAAGLHVLSGIGTLRSMVMREGIEPGRGLKALPSLLFGSFKKAGLEHHHHHH | soluble
